Results published in patent publication US20040161776A1.
“And” between values parts separate entries of the source, which are not always exact repeats. Equal entries are not always repeated.

Legend:
[1] = target: prostate specific membrane antigen (PSMA), full-length human (human) (UniProt Q04609); assay: average, PSMA-3T3 cells
[2] = target: prostate specific membrane antigen (PSMA), full-length human (human) (UniProt Q04609); assay: radiolabeled mAb bound to PSMA-3T3 cell pellets
[3] = target: prostate specific membrane antigen (PSMA), full-length human (human) (UniProt Q04609)
[4] = target: prostate specific membrane antigen (PSMA), full-length human (human) (UniProt Q04609); assay: fraction of 177Lu labeled control antibody bound to cells, column PSMA; column 3T3 (no PSMA): 0.7
[5] = target: prostate specific membrane antigen (PSMA), full-length human (human) (UniProt Q04609); assay: competition on PSMA-3T3 cells; unmodified mJ591 varied, competitor 111In radiolabeled 4.40
[6] = target: prostate specific membrane antigen (PSMA), full-length human (human) (UniProt Q04609); assay: fraction of 177Lu labeled antibody bound to cells, column PSMA; column 3T3 (no PSMA): 1.7

Chain of prostate specific membrane antigen (PSMA), full-length human (human) (Q04609 whole entry): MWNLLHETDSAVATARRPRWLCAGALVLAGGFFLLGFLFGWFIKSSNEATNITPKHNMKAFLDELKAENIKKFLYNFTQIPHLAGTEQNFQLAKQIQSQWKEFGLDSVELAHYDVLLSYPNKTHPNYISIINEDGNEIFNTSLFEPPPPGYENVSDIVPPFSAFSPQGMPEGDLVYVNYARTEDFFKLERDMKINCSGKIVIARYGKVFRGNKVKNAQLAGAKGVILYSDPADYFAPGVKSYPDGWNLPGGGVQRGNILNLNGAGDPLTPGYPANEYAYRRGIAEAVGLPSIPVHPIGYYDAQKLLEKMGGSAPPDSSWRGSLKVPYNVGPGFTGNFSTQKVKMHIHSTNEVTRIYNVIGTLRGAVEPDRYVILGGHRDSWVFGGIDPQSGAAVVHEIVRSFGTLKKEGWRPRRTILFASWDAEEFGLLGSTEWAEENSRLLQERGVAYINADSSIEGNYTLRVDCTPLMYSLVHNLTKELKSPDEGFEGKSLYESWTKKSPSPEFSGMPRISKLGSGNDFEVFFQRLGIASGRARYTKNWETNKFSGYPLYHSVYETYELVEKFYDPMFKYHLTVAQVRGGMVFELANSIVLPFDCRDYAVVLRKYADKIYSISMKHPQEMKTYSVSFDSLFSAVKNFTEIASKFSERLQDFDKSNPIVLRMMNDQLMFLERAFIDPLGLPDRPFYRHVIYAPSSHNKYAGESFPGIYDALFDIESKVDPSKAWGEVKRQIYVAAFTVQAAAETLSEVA
Chain of mJ591 (antibody) (VH): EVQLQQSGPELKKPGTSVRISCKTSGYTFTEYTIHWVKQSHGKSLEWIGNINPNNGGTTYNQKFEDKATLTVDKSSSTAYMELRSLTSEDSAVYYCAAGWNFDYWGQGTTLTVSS
Chain of mJ591 (antibody) (VL): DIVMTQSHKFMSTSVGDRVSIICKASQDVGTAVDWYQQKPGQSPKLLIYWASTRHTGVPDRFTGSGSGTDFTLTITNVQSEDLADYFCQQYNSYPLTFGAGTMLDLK

Question: Which Immunoreactivity (%) [1] does the source give for “111In radiolabeled CHX-A''-DTPA antibody mJ591” here?
Answer: The Immunoreactivity (%) was 56.7%.

Question: And the Immunoreactivity (%) [2]?
Answer: Its Immunoreactivity (%) is 58.5% and 54.9%.

Question: IgG (antibody) was tested. Which PSMA+/PSMA- Ratio of tumor uptake, Mean [3] did it give?
Answer: The PSMA+/PSMA- Ratio of tumor uptake, Mean was 1.16.

Question: And the Cell Based Immunoreactivity (%) [4]?
Answer: Its Cell Based Immunoreactivity (%) is 5.9%.

Question: mAb J591 (murine) (antibody) was tested. Which IC50 (read off the curve) [5] did it give?
Answer: Its IC50 (read off the curve) is 3 nM.

Question: What does the source list for mJ591 (antibody)?
Answer: PSMA+/PSMA- Ratio of tumor uptake, Mean [3]: 2.5; Cell Based Immunoreactivity (%) [6]: 46.2%
